In this assay the target is T1, ARNO's GEF activity with Arf6 (Homo sapiens, UniProt Q99418).
T1 sequence (Q99418 1-400): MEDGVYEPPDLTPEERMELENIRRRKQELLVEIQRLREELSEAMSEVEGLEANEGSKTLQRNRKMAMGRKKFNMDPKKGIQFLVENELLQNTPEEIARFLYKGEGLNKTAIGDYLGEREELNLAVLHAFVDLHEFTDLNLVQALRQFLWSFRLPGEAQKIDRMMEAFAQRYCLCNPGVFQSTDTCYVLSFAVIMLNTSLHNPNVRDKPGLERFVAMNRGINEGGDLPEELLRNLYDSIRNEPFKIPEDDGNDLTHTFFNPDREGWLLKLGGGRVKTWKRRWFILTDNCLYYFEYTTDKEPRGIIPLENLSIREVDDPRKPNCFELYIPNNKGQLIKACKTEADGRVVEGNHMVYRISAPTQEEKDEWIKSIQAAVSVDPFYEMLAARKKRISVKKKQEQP
Briefly: radiolabel GDP/GTP-exchange (GEF) activity assay of ARNO with Arf6. The note with it: recombinant protein. In kind it is biochemical. As to the method: To test the effect of V-ATPase-derived peptides on enzymatic activity of small GTPases, the GDP/GTP exchange activity assay of ARNO with Arf6 was established in the presence of GTPγS and phospholipids vesicles containing various amounts of phosphatidylinositol PIP2 (FIG. 8).
Phospholipid vesicles were prepared by the extrusion method (Macia and Paris Biochemistry, 39: 5893-5901 (2000)). The lipids were dissolved in chloroform. A film of phospholipids was formed by evaporating chloroform and was resuspended in 50 mM Hepes, pH 7.5, and 1 mM dithiothreitol. The suspension was freeze-thawed 3 times and was passed through a 0.1 μm pore size polycarbonate filter.
GDP/GTP-exchange activity of ARNO was measured using time-course radiolabel based assay as previously described (Santy et al., Curr Biol. 9:1173-1176 (1999)). […] After washing filters 3 times with 2 ml of stop buffer, radioactivity was quantified using Perkin-Elmer “Tri-Carb 2900TR” liquid-scintillation counter.
In peptide-inhibition experiments, 500 nM of recombinant ARNO were incubated in the presence of different amounts (0-2000 nM) of FITC-a2N-01-TAT peptide or FITC-TAT peptide as a control. […] The enzymatic activities were followed for 30 min at 37° C. and radioactivity of aliquots were analyzed as described above.

B1: a2N: recombinant N-terminal cytosolic tail, amino acid residues 1-402 of mouse V-ATPase a2-subunit (protein)
chain: MGSLFRSESMCLAQLFLQSGTAYECLSALGEKGLVQFRDLNQNVSSFQRKFVGEVKRCEELERILVYLVQEITRADIPLPEGEASPPAPPLKHVLEMQEQLQKLEVELREVTKNKEKLRKNLLELVEYTHMLRVTKTFLKRNVEFEPTYEEFPALENDSLLDYSCMQRLGAKLGFVSGLIQQGRVEAFERMLWRACKGYTIVTYAELDECLEDPETGEVIKWYVFLISFWGEQIGHKVKKICDCYHCHIYPYPNTAEERREIQEGLNTRIQDLYTVLHKTEDYLRQVLCKAAESVCSRVVQVRKMKAIYHMLNMCSFDVTNKCLIAEVWCPEVDLPGLRRALEEGSRESGATIPSFMNTIPTKETPPTLIRTNKFTEGFQNIVDAYGVGSYREVNPALFTII
modifications: left off: small tags and cut ends
notes: recombinant N-terminal cytosolic tail, amino acid residues 1-402 of mouse V-ATPase a2-subunit
On to B1, for which the “modulation of GDP/GTP-exchange activity of ARNO” value was “successfully used to modulate”.

The values are drawn from patent US20140162285A1, “Methods of Modulating Vesicular Trafficking” (The General Hospital Corporation, priority 2009, published 2014).
